PMC4127636 (The Biochemical journal, 2012)
Substitutions are numbered along the chain they refer to. In names and notes the source's numbering stands.

T1: BioH (Escherichia coli, UniProt P13001)
T1 sequence (P13001 1-256): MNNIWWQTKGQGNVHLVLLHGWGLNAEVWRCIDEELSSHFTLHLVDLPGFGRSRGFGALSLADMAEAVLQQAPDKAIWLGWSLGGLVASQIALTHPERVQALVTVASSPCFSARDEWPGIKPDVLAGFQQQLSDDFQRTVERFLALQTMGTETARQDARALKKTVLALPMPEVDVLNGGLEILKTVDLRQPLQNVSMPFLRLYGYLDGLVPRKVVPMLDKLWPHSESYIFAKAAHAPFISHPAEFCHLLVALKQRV

T2: Atu1476 (Agrobacterium fabrum, UniProt A9CJ11)
T2 sequence (A9CJ11 1-277): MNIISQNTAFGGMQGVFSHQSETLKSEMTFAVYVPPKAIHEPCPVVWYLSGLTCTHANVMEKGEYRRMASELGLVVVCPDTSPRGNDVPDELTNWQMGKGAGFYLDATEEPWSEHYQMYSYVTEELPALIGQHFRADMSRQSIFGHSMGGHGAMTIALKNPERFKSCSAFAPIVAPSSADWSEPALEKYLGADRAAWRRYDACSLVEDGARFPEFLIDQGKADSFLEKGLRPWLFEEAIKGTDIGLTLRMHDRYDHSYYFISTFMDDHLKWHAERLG

T3: YeiG (Escherichia coli, UniProt P33018)
T3 sequence (P33018 1-278): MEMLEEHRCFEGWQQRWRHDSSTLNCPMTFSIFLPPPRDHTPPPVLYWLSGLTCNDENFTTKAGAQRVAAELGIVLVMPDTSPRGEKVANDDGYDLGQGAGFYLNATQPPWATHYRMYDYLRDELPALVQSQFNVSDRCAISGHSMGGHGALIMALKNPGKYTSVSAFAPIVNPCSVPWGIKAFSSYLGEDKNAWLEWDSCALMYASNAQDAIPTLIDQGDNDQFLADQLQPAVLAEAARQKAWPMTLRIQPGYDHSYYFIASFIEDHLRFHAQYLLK

B1: OLEI01171 (Oleispira antarctica) (protein)
chain: MSIENLSSNKSFGGWHKQYSHVSNTLNCAMRFAIYLPPQASTGAKVPVLYWLSGLTCSDENFMQKAGAQRLAAELGIAIVAPDTSPRGEGVADDEGYDLGQGAGFYVNATQAPWNRHYQMYDYVVNELPELIESMFPVSDKRAIAGHSMGGHGALTIALRNPERYQSVSAFSPINNPVNCPWGQKAFTAYLGKDTDTWREYDASLLMRAAKQYVPALVDQGEADNFLAEQLKPEVLEAAASSNNYPLELRSHEGYDHSYYFIASFIEDHLRFHSNYLNA
B2: OLEI01171 (Oleispira antarctica; S173A) (protein)
chain: B1 chain with S172A
B3: OLEI01171 (Oleispira antarctica; N62A) (protein)
chain: B1 chain with N61A
B4: OLEI01171 (Oleispira antarctica; Y98A) (protein)
chain: B1 chain with Y97A
B5: OLEI01171 (Oleispira antarctica; C58A) (protein)
chain: B1 chain with C57A
B6: OLEI01171 (Oleispira antarctica; S59A) (protein)
chain: B1 chain with S58A
B7: OLEI01171 (Oleispira antarctica; A224K) (protein)
chain: B1 chain with A223K
B8: OLEI01171 (Oleispira antarctica; K66A) (protein)
chain: B1 chain with K65A
B9: OLEI01171 (Oleispira antarctica; N226K) (protein)
chain: B1 chain with N225K
B10: OLEI01171 (Oleispira antarctica; N226A) (protein)
chain: B1 chain with N225A

Assays:
[1] = target: T1, BioH; assay: esterase activity, temperature profile; assay type: biochemical; settings: 50 mM potassium Hepes pH 8.0; temperature varied
[2] = target: T2, Atu1476; assay: esterase activity, temperature profile; assay type: biochemical; settings: 50 mM potassium Hepes pH 8.0; temperature varied
[3] = target: T3, YeiG; assay: esterase activity, temperature profile; assay type: biochemical; settings: 50 mM potassium Hepes pH 8.0; temperature varied
[4] = substrate: CC(=O)Oc1ccc([N+](=O)[O-])cc1; assay: spectrophotometric esterase assay; assay type: biochemical, Oleispira antarctica; settings: no salt, 50 mM potassium Hepes pH 8.0, 20°C
[5] = substrate: CCCC(=O)Oc1ccc([N+](=O)[O-])cc1; assay: spectrophotometric esterase assay; assay type: biochemical, Oleispira antarctica; settings: 0.4 M NaCl, 50 mM potassium Hepes pH 8.0, 20°C
[6] = substrate: CCCC(=O)Oc1cccc2ccccc12; assay: spectrophotometric esterase assay; assay type: biochemical, Oleispira antarctica; settings: 0.4 M NaCl, 50 mM potassium Hepes pH 8.0, 20°C
[7] = substrate: CCC(=O)Oc1ccc([N+](=O)[O-])cc1; assay: spectrophotometric esterase assay; assay type: biochemical, Oleispira antarctica; settings: 0.4 M NaCl, 50 mM potassium Hepes pH 8.0, 20°C
[8] = substrate: CC(=O)Oc1cccc2ccccc12; assay: spectrophotometric esterase assay; assay type: biochemical, Oleispira antarctica; settings: 50 mM potassium Hepes pH 8.0, 20°C
[9] = substrate: CCC(=O)Oc1cccc2ccccc12; assay: spectrophotometric esterase assay; assay type: biochemical, Oleispira antarctica; settings: 0.4 M NaCl, 50 mM potassium Hepes pH 8.0, 20°C

Molecule	Km ([8]; 0.4 M NaCl) [µM]	kcat ([8]; 0.4 M NaCl) [s⁻¹]	kcat/Km ([8]; 0.4 M NaCl) [M⁻¹ s⁻¹]	other results
CCCC(=O)Oc1ccc([N+](=O)[O-])cc1 [pNP-butyrate]				esterase activity, temperature profile [1]: using α-naphthyl acetate (A), pNP-butyrate (B and D) and pNP-propionate (C) as substrates; esterase activity, temperature profile [2]: using α-naphthyl acetate (A), pNP-butyrate (B and D) and pNP-propionate (C) as substrates
CCC(=O)Oc1ccc([N+](=O)[O-])cc1 [pNP-propionate]				esterase activity, temperature profile [3]: using α-naphthyl acetate (A), pNP-butyrate (B and D) and pNP-propionate (C) as substrates
B1				Km [4]: 700 ± 100 µM; kcat [4]: 0.2 ± 0.03 s⁻¹; kcat/Km [4]: 300 M⁻¹ s⁻¹; Km [5]: 900 ± 300 µM; kcat [5]: 0.2 ± 0.03 s⁻¹; kcat/Km [5]: 200 M⁻¹ s⁻¹; Km [6]: 200 ± 40 µM; kcat [6]: 0.06 ± 0.01 s⁻¹; kcat/Km [6]: 300 M⁻¹ s⁻¹; Km [7]: 700 ± 200 µM; kcat [7]: 0.3 ± 0.03 s⁻¹; kcat/Km [7]: 400 M⁻¹ s⁻¹; Km ([8]; no salt): 400 ± 30 µM; kcat ([8]; no salt): 0.8 ± 0.02 s⁻¹; kcat/Km ([8]; no salt): 2000 M⁻¹ s⁻¹; Km [9]: 200 ± 30 µM; kcat [9]: 1.5 ± 0.1 s⁻¹; kcat/Km [9]: 8000 M⁻¹ s⁻¹
B2	600 ± 100	5.3 ± 0.3	9000	
B3	500 ± 100	1.8 ± 0.2	4000	
B4	1700 ± 300	2.9 ± 0.3	2000	
B5	200 ± 10	0.9 ± 0.02	5000	
B6	400 ± 10	0.8 ± 0.1	2000	
B7	300 ± 40	1.1 ± 0.1	4000	
B8	400 ± 10	1.2 ± 0.1	3000	
B9	400 ± 100	3 ± 0.2	8000	
B10	500 ± 100	1.7 ± 0.1	3000	
